Results published in US20250289893A1 (OXFORD UNIVERSITY INNOVATION, published 2025).

Key:
[1] = target: Chinese variant CD1a protein (human) (UniProt P06126); experiment: ELISA, 10 µg/ml antibody
[2] = target: Chinese variant CD1a protein (human) (UniProt P06126); experiment: ELISA, 0.1 µg/ml antibody
[3] = target: T1, chimeric CD1a pool B protein [human CD1a lipid binding domain, mouse CD1d Ig domain] (human; mouse, UniProt P06126 18-201; P11609 205-297, limits assumed); experiment: ELISA, 100 µg/ml antibody
T1 sequence (P06126 other isoform, or with tags, fused parts or gaps mutant limits assumed): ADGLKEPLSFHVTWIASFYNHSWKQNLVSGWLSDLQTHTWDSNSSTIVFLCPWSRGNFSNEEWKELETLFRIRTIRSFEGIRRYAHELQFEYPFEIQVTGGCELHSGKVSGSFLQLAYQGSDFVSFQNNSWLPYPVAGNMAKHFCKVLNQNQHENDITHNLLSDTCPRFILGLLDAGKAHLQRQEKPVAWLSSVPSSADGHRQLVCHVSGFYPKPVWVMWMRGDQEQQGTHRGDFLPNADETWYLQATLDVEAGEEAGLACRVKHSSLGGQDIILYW
Method: (§1) CD1a-specific antibodies were identified by ELISA. […] 20 μl/well of peroxidase-conjugated goat anti-species IgG Fc-specific F(ab′)2 fragment (Jackson ImmunoResearch), diluted 1:5000 in block buffer was added and incubated at room temperature for 1 hour, followed by washing with wash buffer.
(§2) The antibodies were titrated through a dilution series and compared to a control rabbit IgG antibody. […] Data shown for purified antibodies.

[4] = target: T2, human CD1a protein (pool B) (human, UniProt P06126 18-295, limits assumed); experiment: ELISA, 3.16 µg/ml antibody
T2 construct: Recombinant protein of the ELISA (coated) and the Biacore T200 titration; whole entry named; also called human CD1a pool B; full length CD1a
T2 sequence (P06126 18-295 limits assumed): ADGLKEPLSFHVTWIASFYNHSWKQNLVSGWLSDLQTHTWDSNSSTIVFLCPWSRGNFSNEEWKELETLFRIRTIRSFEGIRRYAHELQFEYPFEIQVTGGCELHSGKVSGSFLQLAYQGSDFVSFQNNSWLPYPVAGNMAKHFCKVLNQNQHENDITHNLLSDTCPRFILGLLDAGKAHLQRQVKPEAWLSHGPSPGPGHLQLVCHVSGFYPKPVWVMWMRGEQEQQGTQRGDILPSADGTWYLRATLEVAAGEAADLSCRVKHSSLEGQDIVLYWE
Method: as §1
(§3) The antibodies were titrated through a dilution series and compared to a control rabbit IgG antibody.

[5] = target: T1, chimeric CD1a pool B protein [human …; experiment: ELISA, 3.16 µg/ml antibody
Method: as §1, §2

[6] = target: T3, Cynomolgus monkey CD1a protein (Cynomolgus monkey); experiment: ELISA, 0.01 µg/ml antibody
T3 chain: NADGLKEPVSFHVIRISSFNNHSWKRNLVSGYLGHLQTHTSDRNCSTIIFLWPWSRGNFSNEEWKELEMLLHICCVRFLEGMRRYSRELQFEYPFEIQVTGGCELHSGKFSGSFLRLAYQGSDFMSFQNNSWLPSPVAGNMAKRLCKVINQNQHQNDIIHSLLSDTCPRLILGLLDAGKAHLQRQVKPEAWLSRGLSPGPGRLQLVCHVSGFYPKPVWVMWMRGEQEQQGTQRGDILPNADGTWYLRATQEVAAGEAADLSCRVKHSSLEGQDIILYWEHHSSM

[7] = target: T2, human CD1a protein (pool B); experiment: ELISA, 0.316 µg/ml antibody
Method: as §1, §3

[8] = target: T1, chimeric CD1a pool B protein [human …; experiment: ELISA, 0.316 µg/ml antibody
Method: as §1, §2

[9] = target: T2, human CD1a protein (pool B); experiment: ELISA, 0.0316 µg/ml antibody
Method: as §1, §3

[10] = target: T1, chimeric CD1a pool B protein [human …; experiment: ELISA, 0.0316 µg/ml antibody
Method: as §1, §2

[11] = target: T4, human CD1a expressed on cells (human, UniProt P06126 17-327; P61769 21-119); experiment: flow cytometry, C1R cells, 3.16 µg/ml antibody
T4 construct: also called HEK - CD1a; C1R - CD1a
Method: (§4) Binding to proteins expressed on HEK, C1R and MOLT4 cell lines was assessed. […] The C1R-CD1a, C1R-empty vector and MOLT4 cell lines were washed in 1×PBS on the day required. All cell lines were counted and resuspended in 1×PBS and then stained for 30 minutes at 37° C. using the DiI or DiO cellular stains (Invitrogen). Cells were washed with flow cytometry buffer (1% bovine serum albumin, 2 mM EDTA and 0.1% sodium azide in PBS) before mixing 2 DiI-stained and DiO-stained populations together. The cells (20 μl/well) were then added to dilutions of antibody sample (B cell culture supernatant, TAP supernatant, clone supernatant, purified antibody solution) (20 μl/well) and incubated for 1 hour at 4° C. in a flow cytometry assay plate, before being washed with flow cytometry buffer. 10 μl/well of Alexafluor647-conjugated goat anti-species IgG Fc-specific F(ab′)2 fragment (Jackson ImmunoResearch), diluted 1:2500 in flow cytometry buffer, was added and incubated at 4° C. for 30 minutes, followed by washing with wash buffer. The fluorescence intensity was then measured on an iQue screener PLUS.
(§5) Binding was quantified as fold change in fluorescence intensity geomean over background assessed by flow cytometry.

[12] = target: T4, human CD1a expressed on cells; experiment: flow cytometry, C1R cells, 31.6 µg/ml antibody
Method: as §4, §5

[13] = target: T4, human CD1a expressed on cells; experiment: flow cytometry, MOLT4 cells, 100 µg/ml antibody
Method: (§6) CD1a-specific antibodies were identified by flow cytometry. Binding to proteins expressed on HEK, C1R and MOLT4 cell lines was assessed. […] The C1R-CD1a, C1R-empty vector and MOLT4 cell lines were washed in 1×PBS on the day required. All cell lines were counted and resuspended in 1×PBS and then stained for 30 minutes at 37° C. using the DiI or DiO cellular stains (Invitrogen). Cells were washed with flow cytometry buffer (1% bovine serum albumin, 2 mM EDTA and 0.1% sodium azide in PBS) before mixing 2 DiI-stained and DiO-stained populations together. The cells (20 μl/well) were then added to dilutions of antibody sample (B cell culture supernatant, TAP supernatant, clone supernatant, purified antibody solution) (20 μl/well) and incubated for 1 hour at 4° C. in a flow cytometry assay plate, before being washed with flow cytometry buffer. 10 μl/well of Alexafluor647-conjugated goat anti-species IgG Fc-specific F(ab′)2 fragment (Jackson ImmunoResearch), diluted 1:2500 in flow cytometry buffer, was added and incubated at 4° C. for 30 minutes, followed by washing with wash buffer. The fluorescence intensity was then measured on an iQue screener PLUS.
as §5

[14] = target: T5, Cynomolgus monkey CD1a expressed on HEK-293 cells (Cynomolgus monkey, UniProt A0A2K5VQ68 17-326); experiment: flow cytometry, HEK-293 cells, 1 µg/ml antibody
T5 sequence (A0A2K5VQ68 entry or part of it): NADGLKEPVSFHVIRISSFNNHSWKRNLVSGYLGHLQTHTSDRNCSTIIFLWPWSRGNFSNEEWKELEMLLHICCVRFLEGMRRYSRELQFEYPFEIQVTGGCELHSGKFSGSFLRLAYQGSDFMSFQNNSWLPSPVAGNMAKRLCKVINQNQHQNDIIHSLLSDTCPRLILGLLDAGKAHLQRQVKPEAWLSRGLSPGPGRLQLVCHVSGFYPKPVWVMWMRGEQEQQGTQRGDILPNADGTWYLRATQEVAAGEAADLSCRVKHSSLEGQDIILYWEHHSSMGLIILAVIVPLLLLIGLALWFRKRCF
Method: as §4, §5

[15] = target: T4, human CD1a expressed on cells; experiment: flow cytometry, MOLT4 cells, 3.16 µg/ml antibody
Method: as §6, §5

[16] = target: T5, Cynomolgus monkey CD1a expressed on …; experiment: flow cytometry, HEK-293 cells, 0.1 µg/ml antibody
Method: as §4, §5

[17] = target: T4, human CD1a expressed on cells; experiment: flow cytometry, HEK-293 cells, 31.6 µg/ml antibody
Method: as §4
(§7) HEK-293 cells were transiently transfected with human CD1a, CD1b, CD1c or CD1d and co-transfected with human β2M.

[18] = target: T6, human CD1b expressed on HEK-293 cells (human, UniProt P29016 18-333; P61769 21-119); experiment: flow cytometry, HEK-293 cells, 31.6 µg/ml antibody
T6 construct: also called HEK - CD1b
Method: as §4, §7

[19] = target: T7, human CD1c expressed on HEK-293 cells (human, UniProt P29017 18-333; P61769 21-119); experiment: flow cytometry, HEK-293 cells, 31.6 µg/ml antibody
T7 construct: also called HEK - CD1c
Method: as §4, §7

[20] = target: T8, human CD1d expressed on HEK-293 cells (human, UniProt P15813 20-335; P61769 21-119); experiment: flow cytometry, HEK-293 cells, 31.6 µg/ml antibody
T8 construct: also called HEK - CD1d
Method: as §4, §7

[21] = target: T4, human CD1a expressed on cells; experiment: flow cytometry, HEK-293 cells, 0.316 µg/ml antibody
Method: as §4, §7

[22] = target: T6, human CD1b expressed on HEK-293 cells; experiment: as above
Method: as §4, §7

[23] = target: T7, human CD1c expressed on HEK-293 cells; experiment: as above
Method: as §4, §7

[24] = target: T8, human CD1d expressed on HEK-293 cells; experiment: as above
Method: as §4, §7

[25] = target: T2, human CD1a protein (pool B); experiment: SPR (Biacore T200), antibody captured, human CD1a titrated, 1:1 binding model
Method: The affinity of the purified antibodies to human CD1a was assessed using a Biacore T200 instrument (GE Healthcare) by capturing the antibody to an immobilized anti-species IgG F(ab′)2 followed by titration of human CD1a. Affinipure Goat anti-species IgG-F(ab′)2 fragment specific (Jackson ImmunoResearch) was immobilized on a CM5 Sensor Chip (GE Healthcare) via amine coupling chemistry to a capture level of ˜5000 response units (RUs). HBS-EP+ buffer (10 mM HEPES pH 7.4, 0.15 M NaCl, 3 mM EDTA, 0.05% Surfactant P20, GE Healthcare) was used as the running buffer with a flow rate of 10 μL/min. A 10 μL injection of test antibody at 0.5 μg/mL was used for capture by the immobilized Goat Anti-species Fab.
The surface was regenerated between cycles by injection of 2×10 μL of 40 mM HCl, interspersed by a 10 μL injection of 5 mM NaOH at flowrate of 10 μL/min. Background subtraction binding curves were analyzed using the Biacore T200 evaluation software following standard procedures. Kinetic parameters were determined from the fitting algorithm. This assay was performed at the clone supernatant and purified antibody stage.
Affinity was required to be <100 nM to be considered for progression.

Sequence of Chinese variant CD1a protein (human) (P06126 18-295, change not shown): as the sequence (P06126 18-295 limits assumed) above

B1: 116 (VR12117) (antibody, V domains shown)
VH: QSVEESGGRLVTPGTPLTLTCTVSGFSLSNYAMSWVRQAPGKGLEWIGIIYTTGFTYYASWVKGRFTISKTSTTVDLKITSPTTEDTATYFCARGLATYVSPPTRLDLWGQGTLVTVSS
VL: AQVLTQTPSPVSAAVGGTVTINCQASQSIYNSKNLAWYQQKPGQPPKLLIYSASTLASGVPSRFKGSGSGTQFTLTISDLECDDAATYYCQGEFSCSSVDCATFGGGTEVVVK
notes: also called OX116
Q: What does the source list for B1?
A: Optical Density (OD) [1]: 1.51 OD; Optical Density (OD) [2]: 1.53 OD; Optical Density (OD) [3]: 1.37 OD; Optical Density (OD) [4]: 1.15 OD; Optical Density (OD) [5]: 1.38 OD; Optical Density (OD) [6]: 0.07 OD; Optical Density (OD) [7]: 1.15 OD; Optical Density (OD) [8]: 1.32 OD; Optical Density (OD) [9]: 0.95 OD; Optical Density (OD) [10]: 1.13 OD; Fluorescence Intensity Geomean (normalized to background) [11]: 24 fold over background; Fluorescence Intensity Geomean (normalized to background) [12]: 13.7 fold over background; Fluorescence Intensity Geomean (normalized to background) [13]: 3.7 fold over background; Fluorescence Intensity Geomean (normalized to background) [14]: 0.8 fold over background; Fluorescence Intensity Geomean (normalized to background) [15]: 23.9 fold over background; Fluorescence Intensity Geomean (normalized to background) [16]: 1 fold over background; Fluorescence Intensity Geomean (normalized to background) [17]: 5.6 fold over background; Fluorescence Intensity Geomean (normalized to background) [18]: 1 fold over background; Fluorescence Intensity Geomean (normalized to background) [19]: 1 fold over background; Fluorescence Intensity Geomean (normalized to background) [20]: 1 fold over background; Fluorescence Intensity Geomean (normalized to background) [21]: 36.5 fold over background; Fluorescence Intensity Geomean (normalized to background) [22]: 1 fold over background; Fluorescence Intensity Geomean (normalized to background) [23]: 1.1 fold over background; Fluorescence Intensity Geomean (normalized to background) [24]: 1 fold over background; Kd [25]: 2.89 nM; koff [25]: 0.0014 s⁻¹; kon [25]: 483000 M⁻¹ s⁻¹
